Experimental findings from US20230203146A1 are described below.

For assay [1], the target named is FLAG-tagged cynomolgus Ang2 (cynomolgus). Description: competition ELISA: FLAG-cAng2 binding to coated cTie2-Fc, residual cAng2 detected with anti-FLAG-HRP.
Assay [2] has as its target FLAG-tagged human Ang2 (human) (UniProt O15123). Description: competition ELISA: blocking of FLAG-hAng2 binding to coated hTie2-Fc.
Assay [3] addresses FLAG-tagged mouse Ang2 (mouse) (UniProt O35608). Description: competition ELISA: FLAG-mAng2 binding to coated mTie2-Fc, residual mAng2 detected with anti-FLAG-HRP.
The target in assay [4] is FLAG-tagged cynomolgus Ang2 (cynomolgus). Description: competition ELISA: blocking of FLAG-cAng2 binding to coated cTie2-Fc.
Assay [5] has as its target FLAG-tagged human Ang2 (human) (UniProt O15123). Description: competition ELISA: FLAG-hAng2 binding to coated hTie2-Fc, residual hAng2 detected with anti-FLAG-HRP.
Assay [6] shares this target. The description is as above. The source holds these as a separate data set.
Assay [7] shares this target. Description: competition ELISA: blocking of FLAG-hAng2 binding to coated hTie2-Fc. This is another data set of the same source.
Assay [8] has the same target. Described as above. This is another data set of the same source.
In assay [9] the target is FLAG-tagged mouse Ang2 (mouse) (UniProt O35608). Description: competition ELISA: blocking of FLAG-mAng2 binding to coated mTie2-Fc.
For assay [10], the target named is FLAG-tagged human Ang2 (human) (UniProt O15123). Description: competition ELISA: blocking of FLAG-hAng2 binding to coated hTie2-Fc. The source holds these as a separate data set.
In assay [11] the target is FLAG-tagged mouse Ang2 (mouse) (UniProt O35608). Description: competition ELISA: FLAG-mAng2 binding to coated mTie2-Fc, residual mAng2 detected with anti-FLAG-HRP. The source holds these as a separate data set.
For assay [12], the target named is FLAG-tagged human Ang2 (human) (UniProt O15123). Description: competition ELISA: FLAG-hAng2 binding to coated hTie2-Fc, residual hAng2 detected with anti-FLAG-HRP. This is another data set of the same source.
Assay [13] has the same target. Described as above. This is another data set of the same source.
The target of assay [14] is FLAG-tagged mouse Ang2 (mouse) (UniProt O35608). Description: competition ELISA: FLAG-mAng2 binding to coated mTie2-Fc, residual mAng2 detected with anti-FLAG-HRP. This is another data set of the same source.

Sequence of FLAG-tagged human Ang2 (human) (O15123 19-496): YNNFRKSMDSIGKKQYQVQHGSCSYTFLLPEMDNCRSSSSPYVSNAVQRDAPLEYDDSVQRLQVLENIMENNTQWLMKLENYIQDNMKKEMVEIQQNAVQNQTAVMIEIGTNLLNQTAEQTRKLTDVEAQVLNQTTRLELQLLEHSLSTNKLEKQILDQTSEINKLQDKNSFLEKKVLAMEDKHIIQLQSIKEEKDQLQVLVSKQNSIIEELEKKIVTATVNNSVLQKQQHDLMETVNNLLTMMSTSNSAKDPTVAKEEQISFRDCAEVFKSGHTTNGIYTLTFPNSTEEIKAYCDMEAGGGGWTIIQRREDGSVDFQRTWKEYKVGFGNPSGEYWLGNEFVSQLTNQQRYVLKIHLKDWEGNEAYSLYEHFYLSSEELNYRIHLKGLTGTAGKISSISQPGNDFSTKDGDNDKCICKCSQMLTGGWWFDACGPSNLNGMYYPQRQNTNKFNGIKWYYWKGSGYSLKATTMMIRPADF
Sequence of FLAG-tagged mouse Ang2 (mouse) (O35608 19-496 limits assumed): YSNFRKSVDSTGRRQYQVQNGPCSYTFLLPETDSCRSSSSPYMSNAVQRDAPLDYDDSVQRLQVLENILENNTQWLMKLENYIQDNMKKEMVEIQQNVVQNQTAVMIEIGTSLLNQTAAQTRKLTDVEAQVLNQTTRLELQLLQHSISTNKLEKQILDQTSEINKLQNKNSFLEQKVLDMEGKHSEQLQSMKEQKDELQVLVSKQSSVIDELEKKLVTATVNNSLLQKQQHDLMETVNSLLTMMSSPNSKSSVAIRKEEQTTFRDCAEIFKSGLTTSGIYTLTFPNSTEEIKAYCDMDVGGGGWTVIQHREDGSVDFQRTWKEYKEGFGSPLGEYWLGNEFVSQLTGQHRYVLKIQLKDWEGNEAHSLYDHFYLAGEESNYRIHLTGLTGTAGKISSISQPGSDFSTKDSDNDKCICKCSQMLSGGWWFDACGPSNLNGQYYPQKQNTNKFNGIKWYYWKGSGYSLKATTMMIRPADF
Sequence of FLAG-tagged cynomolgus Ang2 (cynomolgus) (O15123 other isoform, or with tags, fused parts or gaps limits assumed): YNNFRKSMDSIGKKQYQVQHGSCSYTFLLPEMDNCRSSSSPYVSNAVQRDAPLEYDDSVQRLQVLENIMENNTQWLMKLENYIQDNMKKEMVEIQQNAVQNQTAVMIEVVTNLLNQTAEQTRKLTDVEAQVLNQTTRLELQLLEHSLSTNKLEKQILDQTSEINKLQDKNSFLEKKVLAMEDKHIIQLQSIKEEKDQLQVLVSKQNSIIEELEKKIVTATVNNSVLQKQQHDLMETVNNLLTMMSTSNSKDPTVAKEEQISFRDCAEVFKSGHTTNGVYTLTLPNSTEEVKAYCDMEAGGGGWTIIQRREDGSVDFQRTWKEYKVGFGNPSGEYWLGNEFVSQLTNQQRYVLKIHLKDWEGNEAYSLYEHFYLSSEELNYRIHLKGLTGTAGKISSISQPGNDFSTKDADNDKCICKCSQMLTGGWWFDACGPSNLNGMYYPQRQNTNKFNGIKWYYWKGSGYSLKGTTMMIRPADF

As for AMG386 (Fc fusion), the IC50 (read off the curve) amounted to 10 pM in [1]; 5 pM in assay [2]; 3 pM in assay [3]; 1 pM in [4]; 3 pM in assay [5]; 2 pM in assay [6]. The IC50 (read off the curve) turned out to be 4 pM in assay [7]; 0.5 pM in assay [8]; 6 pM in assay [9]; 3 pM in assay [10]; 7 pM in [11]; 5 pM in assay [12]. Further, the IC50 (read off the curve) worked out at 6 pM in assay [13] and 4 pM in assay [14].
